Measurements published in a protein production outcome set (Wang et al. 2014).

Assay: label from the status in PepcDB records

**Q.** Which protein production does the source give for “MNPMAIISITAFVVALVSGVYIFVKNPESRFNRALLLFSALIAYLSLTDFGLYISESYMMADFWVRMGFLWPIVVPVILHMVLLFTGRRPTMPLLAVIYAPAVVIAALELTTDLITAGPTMTSWGWTFSAAENSLPYQISNIWGFIIASVAIILVALHWRSSRGSDRTQAHYLLTGLILPVLAGVLTDLVLPAAGMAVPSLTDPSAALGVSIIAYGVMRFRLPILSPLNAAMDIVRNMNTFLIITDLGLNIHYVNPATERLTGRRAAEFSGRKVTEVLKFDELSTGSIMESRLRGKDEWIPVIVSAGHVHGSGGEHLGLLFTGSDMRPILEMEEKLRRREDRLVLLTEHMADGLGEFDRDFNFRYLSPSVKKITGYDHEMLTGMSALDFMDYLHPDDTEEVKKLILTRGEGHRATFRIRRPDGNYRWVEYVDRPIRTDGDIEGYVFGLRDIHEHKLAEEALIVSKEKFRELFRNMRSGIIAVESDGKGFRVKSMNPAAERMEGVSCAAIQGMDLQEALPEIWNSPIRRALQEIRETGEAIHCPEVECGEGWFDVHLHQLSTGEVVIICTDITLRKQYEDELRASLREKEALLREVHHRVKNNFQVISSLINLQLDDAEDPAPLRDLQSRIQSMALVHELLYESEDLTSIDMGRYIERLTSSIVNSHHNGEIEVEVAVGDITLPLETAIPLGLIINELVTNSFKHAFTSGGMISVELEEHGGEFTLTITDNGVGLPPDFIIEDSDSLGLRLVAGLVDQIDGTLEVSGEDGTRFRLTFGVVPYRRRV” here?
**A.** failed

**Q.** With “MNPTAGKTSATGEQMASTSADTYSPSRDDFAAMLDESFAGGNLQESSVVKGKVVAIEKDMAVIDVGLKTEGRVALREFSGPGRDSEIKVGDEVEVFLDRIENALGEAVLSRDKARREESWGKLEKAFQNNEKVNGVIFNQVKGGFTVDLDGAVAFLPRSQVDIRPIRDVAPLMNNSQPFQILKMDRRRGNIVVSRRTVLEETRAEQRQELVQNLEEGQVIDGVVKNITDYGAFVDLGGIDGLLHVTDIAWRRVNHPTEVLSIGQTVKVKIIKINHETHRISLGMKQLLDDPWQGIEAKYPLGARFTGRVTNITDYGAFVELEPGIEGLIHVSEMSWTKKNMHPGKIVSTSQEVEVQVLEVDSVKRRISLGLKQTMRNPWEVFVEGHPTGSVVEGEVKNKTEFGLFLGLEGDVDGMVHLSDLDWKLPGEQVIDNYKKGDMVKAVVLDVDVEKERISLGIKQLEGDPFAEPGDVKKGAVVTCEVLEVKESGIEVKIAGTDFTTFIKRSELARDRNDQRAERFAVGEKVDARVIQFDKKARKVQVSIKALEVAEEKEAIAQYGSSDSGATLGDILGTALKNRDSK” as the sequence, how does the protein production read?
**A.** failed

**Q.** Which protein production does the source give for “MNQAMDTKQIAPFTLALPEGEALPLVCDSPHSGTFYPADFGAVVAPERLRGGEDTHVDALWEAVPRVGGTLLAATFPRVYIDPNRMLDDIDPAQLEGPWPTPLAPGEKTRLGYGLIWSNVDAATPIYDRKLTVAEVQRRINRYYRPYHAALTEAVEGAYQRFGAVWHLNLHSMPNNAYERLKIQSPRPLADFVLGDRDGTTCEPGLVDLVERELREKGYTVARNDPYKGVQLIAQIGRPAERRNSLQIEIRRPLYMEEGTRERNEGFATLQRDLTLLTLRIAEYVRRGV” here?
**A.** not failed

**Q.** For “MNQLTQYTITEQEINQSLAKHNNFSKDIGLPGVADAHIVLTNLTSQIGREEPNKVTLTGDANLDMNSLFGSQKATMKLKLKALPVFDKEKGAIFLKEMEVVDATVQPEKMQTVMQTLLPYLNQALRNYFNQQPAYVLREDGSQGEAMAKKLAKGIEVKPGEIVIPFTDLEHHHHHH”, which protein production is on record?
**A.** not failed

**Q.** For “MNQNNHFRLTLSTLLQQCQQDITSLPTAMRAVFSWQRGLNELKTLRRTTKLMMSTMLIVTIIGFILGRDYSLHGWIGLLTGITVVINLILVDQGRLTNYSWGIIACAAWLTTAITNRLIGDIASQSFYLIMQFVGITVWHRKMAAQPDASELTGRKLSKLAGCAWFALAVLVYAIVLHFSKQLNGNQIYLDATLLPLGIVGSVLMVNGYRSQWVAWITLDVINVIIWFNQLKGFSPAAASMLALQLVMLANALYGAYLWFFGQNTQQDKLDTH”, which protein production is on record?
**A.** failed

**Q.** With “MNQNQNKKTKIVALSMMNSQTSGNPSRGTTKFESYTFDYWQYIDTLVYWGGSSGEGIIVTPSADVIDEAHSNGVPVLGTIFLPPKEYGGKVDWVKTMLKKDEQGQYPFASQMVKVAKTYGFEGWFINEETQGLNADDAANMKALIQQVKKEDSSLQIMWYDAMTKDGKVDWQNQLNDQNATFVQDKAADAMFLNFWWTQNNLADQKLLEKSNLYAKNHNIDPYNIYAGIDVQAKDVQTPVKWNLLEKGNQATQTSIGLYAASATYTNASNWDDFQNRESAFWVNQKADPRQVDHSVNESWTGLSKYVLEKSAISGNEFNTNFNLGNGYNYFKAGQKISEMDWNDRSLAGILPSYRWIIDNEGKNKISPSFDFANAYNGGNSLKFMAEHLDAGKSSNITLFASDLKIAMGAKFSVSMRSDQALKVSAILELANGQKVSIAGDKSLTENWSKLEHHHHHH” as the sequence, how does the protein production read?
**A.** not failed

**Q.** For “MNQQDIKQKVLDVLDHHKVGSLATVAAGAPHSRYMTFFHDGLTIYTPTSKETHKAEEIENNPNVHILLGYDCEGFGDAYVEVAGKAKINNSAELKDKIWSSKLERWFDGKDDPNLVILEIEPEDIRLMNAGEKTPVSLEL”, which protein production is on record?
**A.** not failed

**Q.** For “MNQQLLAKTFVELADNLVADFDLIDFLRLLTDRCVGMLDASAAGVLLADRNGELRVMAASDEQVRLLELFQLQNDEGPCLDCFRTGAPVTVPDLSAVTARWPRFAVQARRSGFGAVQALPMRLRDEVVGALNLFRATPGPFDPAATPLAQALADVATISLLQQRTAHRSTVLNEQLQTALN”, which protein production is on record?
**A.** not failed

**Q.** Which protein production does the source give for “MNQRLDHYLKNTNQCETRSKAIDLIKRGRVFVNNFQVLKPSFLVKQTDSVEIKNDEMYFVSKGGYKLLKIIKEINLIIKNFVIADLGSSTGGFTDCCLQLGAKKIYAIDVGVDLLHPSLKKSYKIINYEKTNVKNLDKSYFLEDLDLIVGDLSFISLEQIFPIIKKISSPKTLLLLLIKPQFELGKDVASKYKGLIQNQKLQQLAINKIINLAKNYDFECKHLTPTDIFDEKKQNQEYMIFLQKHEK” here?
**A.** failed

**Q.** With “MNRFLTSIVAWLRAGYPEGIPPTDSFAVLALLCRRLSHDEVKAVANELMRLGDFDQIDIGVVITHFTDELPSPEDVERVRARLAAQGWPLDDVRDREEHA” as the sequence, how does the protein production read?
**A.** not failed

**Q.** Which protein production does the source give for “MNRHISFERLHNFRDLGGYTTADGRVVRWGRLFRSDSLGKLTGEEWERFLALGIGTVIDLRYPWEIDAKGRVPEHPAFTYHNLSIEHRPYDQAGLGPDVETGPFLAEKYMEVAHDGVKELRQVVEVIAAVATSTDESVVFHCASGKDRTGLVAALVLALLGVPESQIVEDFTLTELATERLLADWRADHPGQEPTWPGYGRAPADVMRLFLDALTHQHGSMADYARDLLRIDEGLIAALRRNLLEPAAEPELTFRRADHRDLPELVRLRDSAARWQIARGIDQWKPGQLGEDHFRARLADGEIWIATLGPTGPTAGAWELWWDDPAAWGPQPPSAGYVHRLMTDRRTAPPGTGRLMLAEAERRIAETGRTLCRLDCLASNPRLRQYYETAGYTVVGEQSSKDGGLGNTYAVTLLEKTVPEALTPRSTKPAR” here?
**A.** failed

**Q.** For “MNRKFTARGPKRIEWAPHSCYHRKAHGFRPGTLSARHRSVRTPRSIVGIRTPHPHPNPTDHDFATMTIRQSALFALALGTLGLLALSGCSAGNPNMSAAEDAMEQERYERALANVDSAIAQDSANAQAYAMKARILRQMADSTAPPEAYKQRYRQARQAEEKAIKFDPGRRSDIKNQRELAFIQEFQKGADAFNRAQQSSQKSDYLRAAAYFGAAGAIRPDSTGPIRNEAFARLQAARLEGGDQGMQEMSNVIPILERYLKKEDEPEKDVYSILSQLYRQGDQPERALEVTERALDDLSSRPTHFRIQGTRGLSYTGTIEAGGTSRQVEGTTPDRIELSTSDGMVTGTFRKQDGGKKQTKGRLQVGLYTQGTQVANSRTTALEEITISEDLSSVTPLAELQNQRLSALNSTGNTEKAMQAYRQQIERNPENARYRYNYGSLLLNSDRYDEAIEQLSEAVKLDSDDPKKQYNLGAAYLNKGVVLQDSLVSVRDSVMAQNRKPTQEEAQMIEDLDEQRLQFFQNAIPPLERARQLSGANGRYRQNACSALLQAYVQTEQTDKAEDVKQCAGAGGNTSGGSGGR”, which protein production is on record?
**A.** failed

**Q.** With “MNRKMFGELISEAIAMFIIIALGESAAAMYILYDPSPYQNAYWGLCICWGLAVTIAIYVTASVSGTHANPAVTLALALYRGFPWKKVLPYWAAQVIGAFIGAMIVYQLYSPVIDYYNHIHQLTRDAGGAAGVFFTSTGMAITPIHALGDEIILTAFLVFGIFAITERFNEAAPTANSGALVIGLLVATIGACMGYLEGWAINPARDLGPRLFAFLAGWGESAFPGKDHYWWIPIIGPLIGGVMGATAFQCLIYPFLPARVQAKQQAAILLHRKHP” as the sequence, how does the protein production read?
**A.** failed

**Q.** Which protein production does the source give for “MNRLLNEKVEEFKKGVLKAGWFIEKMFRNSISSLVERNESLAREVIADEEVVDQMEVEIQEKAMEVLGLFSPIGKPLLTVTAGIRVAELIENIADKCHDIAKNVLELMEEPPLKPLEDIPAMANQTSEMLKFALRMFADVNVEKSFEVCRMDSKVDDLYEKVREELLLYMMESPKYVKRALLLLEIAGNIEIIADYATNIVEVSVYMVQGEAYKCYHDELLLFKKSGGVLFESSD” here?
**A.** not failed

**Q.** Which protein production does the source give for “MNRNLLLFASGSFVSLIGTRIYQVALAWWLYSKTGSSEYVGLFMISSFLPAIIVSPFAGTVVDRHSRRNMMVVMDILRGVLFMYLFLMEYFSELTMALLLIVTVLVSVFDSFFNPAVDSLLPDLVRKENLVRANSLYRLLKNLSKILGPALGSLLLKVVGLAGVILINSLSFLISGIFEMFIKVEEKHLKKVSKERNMWQDIKSALLYIRSVRFILVTILVIAIMNFFTGSMHVLLPEHVSKLGKSEWVYGTLMSMLSFGGLIVTFLMATIRTRASVKTLGLNLVGYGLAVFVFAMTGNHWLMFAMYFLIGIFQTLFNINVITLLQLAIPEEMRGKIFSLISAVSFSLLPVSYGFFGFLSSYVATAHIFITTSMALIAGGVLISLQRFEG” here?
**A.** failed

**Q.** For “MNRSANTNAVLLLLLCAFFWGASFPVGKHALGEVHALTLVIWRFAIAAACLFAFIKWKRIPIPELKAKQWLWVVGVSIVGVGGLNLGLFTGLAQTNASNGALIMALSPLTTSLIGSLLQRKLLTRGAVFSLVVCLSGVLLVLTNGELKRLLSFEFNHGDQIIFLGMLCWSLYTYLTQGISRWMPMIPYTFIGMLAGLGVISVVAAFSAEAHPVQESLAISQIVLADLLFIGVFGTVGGYLLWISGVKQLGAANASLFFNFVPIFAALTAVTFGQNVASLQLLGMAIVISGLLLPRLTHWRQQRFARMG”, which protein production is on record?
**A.** failed

**Q.** For “MNRSNQDITQPTAIIAVVGVGAEQGIGAAVCRRFAQEKFKVYVAGRTLNKVEKVAAAIHRQGGQAVAYVLDAENEQQLQTLFDHLNDQPEALAAVIHNVGGNIPSIFLQSSLKFFSQMWRSTFLSSVLVAQRSLSIFQKQQQGTLIFTGASASLRGKPFFAAFSMGKSALRSYALNLAELYRSQNIHVAHVMVDGMVDGDRVNKALWGLGRLARLTRGTGGLNIDAIAENYWMLYQQNVDLWTHELDLRPYQEKF”, which protein production is on record?
**A.** failed

**Q.** With “MNRVEPPYDVKEALVFTQKMAQLSKALWKSIEKDWQQWLKPYDLNINEHHILWIAYQLNGASISEIAKFGVMHVSTAFNFSKKLEERGYLRFSKRLNDKRNTYVQLTEEGTEVFWSLLEEFDPTRNAVFKGSQPLYHLFGKFPEVAEMMCMIRHIYGDDFMEIFETSLTNIDNDFESVNGKLKKKAKDSAADEPAEELEPVNS” as the sequence, how does the protein production read?
**A.** not failed

**Q.** Which protein production does the source give for “MNRVFKKNSVFAIIFAACSWGGFLDRAYAEACPSEDFSKFLTVFSATPEVQQRFTAVKVQALVLKPAKQTDRFEPQTTDVANASLAYPLMGPIISDKTDGVQIEAVDDRHVRVIDKRAGHSDIKVFNFSRQTCWVLAGMEDWSISEKDLSAAVQPKMNRSESLCFQRGRAYAGLGGVEQYPLTAEFFEAALENYVCAAASGDPQASLNAASLSLSGMAPQLETEKVEALFKAASTTLADGAAGLSSFYCYGNNVAADGPCQHPEQAEKELVRAVSMGSSDATNYLGYTLETGELRTTDLDRAIACYRLAASMGNQTAADNLKRLSKQATDVSTAGHCY” here?
**A.** failed
